Measured values reported in patent publication US7442518B2, “Imaging regulated protein-protein interactions in cells and living animals by enhanced luciferase protein fragment complementation” (Washington University, priority 2003, dated 2008).

How the values were obtained:
[1] = biological target: FRB domain of human mTOR / FKBP-12 (FRB-NLuc/CLuc-FKBP LCI pair) (Homo sapiens, UniProt P42345+P62942); experiment: Luciferase complementation imaging (LCI) of rapamycin-induced FRB/FKBP association in live HEK-293 cells; type: cell-based; conditions: HEK293, read-out: EC90 of rapamycin; HEK-293 cells transfected with FRB-NLuc/CLuc-FKBP
Protocol: Data, expressed as mean photon flux±SEM of quadruplicate wells, are representative of three independent tests.
HEK-293 cells were cultured in Dulbecco's Modified Eagle Medium (DMEM), (Life Technologies, 2575 University Ave. W., St. Paul, Minn. 55114 USA) supplemented with 10% fetal calf serum (FCS), 1% glutamine, 0.1% P/S, 0.1% fungizone. Cells (3×10^6/10 cm dish or 1.5×10^5 per 35 mm dish) were transiently co-transfected with pairs of plasmids as indicated using FuGene-6 (Roche) according to the manufacturers directions.

[2] = test system: phosphorylation of Cdc25C-NLuc on S216; experiment: Western blot of phospho-S216 Cdc25C-NLuc in HEK-293 cells; type: cell-based, human; conditions: UCN-01 1 μM, 6 hrs
Protocol: Cells were left untreated or treated with UCN-01 (1 μM) for 6 hrs prior to lysis, processed for Western analysis and then probed with the antibodies indicated to visualize expression, phosphorylation, and the effect of UCN-01 on the LCI constructs.
Cells (3×10^6/10 cm dish) were transfected with the indicated plasmids (6 μg each). Media was removed 6 hrs prior to lysis and replaced with media containing UCN-01 at the concentrations indicated. Cells were washed with PBS and lysed by incubation for 30 min at 4° C. with 1 ml RIPA buffer containing protease inhibitors (50 mM tris-HCl, pH 7.4, 1% NP-40, 0.25% deoxycholic acid, 150 mM NaCl, 1 mM EDTA, 1 mM each PMSF, sodium orthovanadate, and NaF, 1 μg/ml each leupeptin, aprotinin, pepstatin). After centrifugation to remove insoluble material, protein concentration was determined by BCA (Pierce Biotechnology, Inc., Customer Service Department, P.O. Box 117, Rockford, Ill. 61105 U.S.A). The Bicinchoninic Acid (BCA) test to determine protein concentration is a highly sensitive alternate assay to the Lowry assay.
Proteins (200 μg) were separated by SDS-PAGE and analyzed using polyclonal primary antibodies against pGL3 luciferase (Promega US, 2800 Woods Hollow Road, Madison Wis. 53711, USA) or phospho-S216-Cdc25C (Santa Cruz Biotechnologies, 2145 Delaware Avenue, Santa Cruz, Calif. 95060, U.S.A.). […]

[3] = test system: Cdc25C-NLuc/CLuc-14-3-3ε LCI pair; experiment: LCI of Cdc25C/14-3-3ε interaction in HEK-293 cells; type: cell-based, human; conditions: UCN-01 1 μM, 6 hrs
Protocol: HEK-293 cells transfected with Cdc25C-NLuc/CLuc-14-3-3ε or mutant S216A Cdc25C-NLuc/CLuc-14-3-3ε were treated with vehicle alone or UCN-01 (1 μM) for 6 hrs prior to LCI. Data are expressed as percent of bioluminescence relative to untreated Cdc25C-NLuc/CLuc-14-3-3ε in cells and represent the mean±SEM of three independent experiments, n=4 each.
To replace the FRB with human Cdc25C or human p91 STAT1 (J. E. Darnell Jr., The Rockefeller University, 1230 York Avenue, NY, N.Y. 10021, USA.) in the NLuc fusion vector, open reading frames of these cDNAs were amplified by PCR using 5′ primers containing a BamHI site and Kozak consensus sequence upstream of the start site and 3′ primers which reconstituted the linker region up to the BsiWI site. FRB was replaced using the BamHI and BsiWI sites. FKBP was similarly replaced with 14-3-3ε or STAT1 using BsiWI at the 3′ end and EcoRV at the 5′ end.
Cells (1×10^4/well in 100 μl media) were transferred to 96-well black walled plates 16-24 hrs after transfection. At the times indicated, growth media was replaced with media containing appropriate drugs or vehicles. To image live cells, D-luciferin (10 μl of 1.5 mg/ml in PBS) was added to wells. Photon flux for each well was measured 8-10 min after addition of D-luciferin with an IVIS CCD camera (1 min exposure, f-stop=1, binning 8, FOV 15 cm). […]

[4] = test system: STAT1-NLuc, CLuc-STAT1, endogenous p91 and p84 STAT1 phosphorylation; experiment: Western blot of Y701 phosphorylation of STAT1 reporters and endogenous STAT1 in HEK-293 cells; type: cell-based, human; conditions: IFN-γ 1000 U/ml, 30 min
Protocol: Cells were left untreated or treated with IFN-γ (1000 U/ml) for 30 min prior to lysis, processed for Western analysis and then probed with the antibodies indicated to visualize expression and IFN-γ-induced phosphorylation of STAT1-NLuc (grey arrows), CLuc-STAT1 (black arrows), and endogenous p91 and p84 STAT1 (unfilled arrows). Intact luciferase expression (hatched arrow) is also shown. Note that while STAT1-NLuc could not be visualized using the STAT1 antibody, the fusion could be visualized with both Luc and phospho-STAT1 antibodies.

[5] = test system: STAT1-NLuc/CLuc-STAT1 LCI pair (nuclear accumulation); experiment: Bioluminescence of nuclear extracts of cells expressing STAT1-NLuc/CLuc-STAT1; type: cell-based, human
Protocol: HEK-293 cells were transiently transfected with STAT1-NLuc/CLuc-STAT1, the Y701F STAT1 mutant LCI pair, or intact luciferase. […] To measure bioluminescence in extracts, an assay buffer including D-luciferin and ATP (Luciferase Assay Buffer, Promega, USA) was added to duplicate samples of each extract. Bars show the ratio +/−SEM of mean photon flux/μg protein for extracts of IFN-γ treated over untreated cells. […] Duplicate determinations are vertically arranged with independent extracts arrayed horizontally.
(§1) To confirm that phosphorylated STAT1 LCI pairs were biologically functional, the inventors measured the IFN-γ-inducible nuclear accumulation of bioluminescence activity. Cytoplasmic and nuclear extracts were prepared from untreated and IFN-γ-treated HEK-293 cells transiently co-transfected with the STAT1-NLuc/CLuc-STAT1 LCI pair, the Y701F mutant pair, or intact luciferase. […] Western blots of the cytoplasmic and nuclear extracts used in FIG. 16. confirmed purity of the extracts, neither fraction showing cross-contamination as assessed by the marker proteins β-tubulin (cytoplasm) and Topo II (nucleus), respectively (data not shown). Western blots also confirmed virtually identical expression levels of wild-type and Y701F mutant LCI pairs as well as appropriate phosphorylation of STAT1 proteins and reporters (data not shown).

[6] = test system: STAT1-NLuc/CLuc-STAT1 LCI pair; experiment: LCI of STAT1-NLuc/CLuc-STAT1 in intact transduced cells (HEK-293, 2ftgh, U3A); type: cell-based, human; conditions: any time or any dose
Protocol: Each transduced cell line was sorted by FACS for expression of appropriate fluorescence markers (EGFP and mRFP) to enrich for cells carrying the imaging constructs. These enriched populations were seeded in a 96-well format (10^4 cells/well), and left untreated or treated with […] (1000 U/ml for 30 min). Bars represent the mean +/−SEM (n=4) for a representative test. Note the y-axis log scale.
The STAT1-NLuc and CLuc-STAT1 open reading frames were cloned into lentiviral vectors (gift of J. Milbrandt, Washington University in St. Louis, One Brookings Drive, St. Louis, Mo. 63130, USA ) downstream of a CMV promoter and upstream of an IRES linked to EGFP (Clontech) or mRFP (R. Tsien, UCSD), respectively.
Cells (1×10^4/well in 100 μl media) were transferred to 96-well black walled plates 16-24 hrs after transfection. At the times indicated, growth media was replaced with media containing appropriate drugs or vehicles. To image live cells, D-luciferin (10 μl of 1.5 mg/ml in PBS) was added to wells. Photon flux for each well was measured 8-10 min after addition of D-luciferin with an IVIS CCD camera (1 min exposure, f-stop=1, binning 8, FOV 15 cm). Cell lyastes used for imaging were prepared using Reporter Lysis Buffer (Promega US, 2800 Woods Hollow Road, Madison Wis. 53711, USA) according to the manufacturers directions.

[7] = test system: Y701F mutant STAT1 LCI pair; experiment: Bioluminescence of nuclear extracts of cells expressing the Y701F mutant STAT1 LCI pair; type: cell-based, human; conditions: IFN-γ 20 min, 100 U/ml, HEK-293
Protocol: HEK-293 cells were transiently transfected with STAT1-NLuc/CLuc-STAT1, the Y701F STAT1 mutant LCI pair, or intact luciferase. Forty-eight hours after transfection, cells were left untreated or treated with IFN-γ (1000 U/ml for 20 min) (n=3 for each) and then extracts prepared. To measure bioluminescence in extracts, an assay buffer including D-luciferin and ATP (Luciferase Assay Buffer, Promega, USA) was added to duplicate samples of each extract. Bars show the ratio +/−SEM of mean photon flux/μg protein for extracts of IFN-γ treated over untreated cells. […] Duplicate determinations are vertically arranged with independent extracts arrayed horizontally.
as §1, with “Western blots also confirmed virtually identical expression levels of wild-type and Y701F mutant LCI pairs as well as appropriate phosphorylation of STAT1 proteins and reporters (data not shown).” left out

Chain of FRB domain of human mTOR / FKBP-12 (FRB-NLuc/CLuc-FKBP LCI pair) (P42345 2024-2113): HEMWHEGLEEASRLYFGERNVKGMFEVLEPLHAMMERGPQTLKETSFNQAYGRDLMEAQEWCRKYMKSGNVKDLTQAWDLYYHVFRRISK
Chain of FRB domain of human mTOR / FKBP-12 (FRB-NLuc/CLuc-FKBP LCI pair) (P62942 2-108): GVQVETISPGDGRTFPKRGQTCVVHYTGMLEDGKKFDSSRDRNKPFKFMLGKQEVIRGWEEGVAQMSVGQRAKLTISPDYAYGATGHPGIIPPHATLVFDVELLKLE

## CO[C@H]1C[C@@H]2CC[C@@H](C)[C@@](O)(O2)C(=O)C(=O)N2CCCC[C@H]2C(=O)O[C@H]([C@H](C)C[C@@H]2CC[C@@H](O)[C@H](OC)C2)CC(=O)[C@H](C)/C=C(\C)[C@@H](O)[C@@H](OC)C(=O)[C@H](C)C[C@H](C)/C=C/C=C/C=C/1C [rapamycin]
[1]
  EC90: 80 nM

## CN[C@@H]1C[C@H]2O[C@@](C)([C@@H]1OC)n1c3ccccc3c3c4c(c5c6ccccc6n2c5c31)C(=O)N[C@@H]4O [UCN-01]
[2]
  effect on phosphorylation of Cdc25C-NLuc on S216: reduction in phosphorylation
[3]
  effect on bioluminescence of Cdc25C-NLuc/CLuc-14-3-3ε: decreased bioluminescence

B1: IFN-γ: interferon-γ, activates JAK1-mediated phosphorylation of STAT1 on Y701 (protein, UniProt P01579 24-161, looked up)
Interferon gamma: QDPYVKEAENLKKYFNAGHSDVADNGTLFLGILKNWKEESDRKIMQSQIVSFYFKLFKNFKDDQSIQKSVETIKEDMNVKFFNSNKKKRDDFEKLTNYSVTDLNVQRKAIHELIQVMAELSPAAKTGKRKRSQMLFRG
[4]
  phosphorylation of STAT1-NLuc, CLuc-STAT1 and endogenous p91 and p84 STAT1: resulted in phosphorylation
[5]; IFN-γ 20 min
  bioluminescence (photon flux/μg protein) in nuclear extracts of HEK-293 cells: specifically increased
[5]; IFN-γ 30 min, n=3
  increase in bioluminescence of nuclear extracts of U3A cells: 6 fold
[6]
  effect on bioluminescence of co-transduced intact cells: failed to change bioluminescence
[7]
  nuclear bioluminescence in extracts of cells with mutant STAT1 LCI pair: No such IFN-γ-induced increase
